The data set “crystal structure” concerns the molecule itself. Nature of the data set: crystal structure.
The data set “SEC-MALS” deals with the molecule itself. Nature of the data set: SEC-MALS. Background: SEC sorts molecules by how far they enter the pores of the column.

B1: Selenomethionine-substituted dARC1 CA (residues S39 to N205) (domain or fragment, D. melanogaster)
chain: SRGKGNFSACTHSFGGTRDHDVVEEFIGNIETYKDVEGISDENALKGISLLFYGMASTWWQGVRKEATTWKEAIALIREHFSPTKPAYQIYMEFFQNKQDDHDPIDTFVIQKRALLAQLPSGRHDEETELDLLFGLLNIKYRKHISRHSVHTFKDLLEQGRIIEHNNPLE
modifications: selenomethionine in place of methionine
On to B1, for which the binding result in “crystal structure” is “binds”.

B2: dARC1 CA F133A (domain or fragment, D. melanogaster)
chain: SRGKGNFSACTHSFGGTRDHDVVEEFIGNIETYKDVEGISDENALKGISLLFYGMASTWWQGVRKEATTWKEAIALIREHFSPTKPAYQIYMEFAQNKQDDHDPIDTFVIQKRALLAQLPSGRHDEETELDLLFGLLNIKYRKHISRHSVHTFKDLLEQGRIIEHNNPLE
On to B2, for which the binding result in the data set “SEC-MALS” was “binds”.

The values are drawn from PMC6938703 (Science Advances, 2020).
